In patent US20140220017A1:

Key:
mouse IgG (mouse) [1] = test: QCM; pH 7.4
human IgG (human) [2] = test: QCM; pH 7.4
mouse IgG (mouse) [3] = test: QCM; pH 6
human IgG (human) [4] = test: QCM; pH 6
human IgG Fc (human) [5] = test: QCM; pH 7.4
mouse IgG Fc (mouse) [6] = test: QCM; pH 7.4
human IgG Fc (human) [7] = test: QCM; pH 6
mouse IgG Fc (mouse) [8] = test: QCM; pH 6

Substance | Kd (mouse IgG (mouse) [1]) | Kd (human IgG (human) [2]) | Kd (mouse IgG (mouse) [3]) | Kd (human IgG (human) [4]) | Kd (human IgG Fc (human) [5]) | Kd (mouse IgG Fc (mouse) [6]) | Kd (human IgG Fc (human) [7]) | Kd (mouse IgG Fc (mouse) [8])
SpAB (from UniProt P38507 212-269) | 380 nM | 9 nM | 15000 nM | 350 nM | – | – | – | –
SpAD (from UniProt P38507 93-153) | 56 nM | 22 nM | 773 nM | 148 nM | 14 nM | 54 nM | 30 nM | 980 nM
